Results taken from patent US20210388107A1 (BYONDIS B V, published 2021).
One block for each binder: values may come before it.

How the values were obtained:
[1] = target: T1, human SIRPαBIT expressed on cells (human, UniProt P78324 31-504); test: cell-based or functional assay
[2] = target: T2, human SIRPα1 expressed on cells (human, UniProt P78324 31-504); test: flow cytometry, ExpiCHO-S cells
T2 construct: whole, on cells; also called huSIRPα1; ExpiCHO-S (huSIRPα1)
How it was run: (§1)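 After 30 min at 4° C., cells were washed and stained with APC-labelled anti-human IgG F(ab′)₂ (1:6,000) for 30 min at 4° C. Read-out was median fluorescence intensity for U937 and mean fluorescence intensity for ExpiCHO-S cells. EC₅₀ (μg/ml) came from a four-parameter logistic fit.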

[3] = target: T1, human SIRPαBIT expressed on cells; test: flow cytometry, U937 cells
How it was run: as §1

T1 sequence (P78324 31-504 limits assumed): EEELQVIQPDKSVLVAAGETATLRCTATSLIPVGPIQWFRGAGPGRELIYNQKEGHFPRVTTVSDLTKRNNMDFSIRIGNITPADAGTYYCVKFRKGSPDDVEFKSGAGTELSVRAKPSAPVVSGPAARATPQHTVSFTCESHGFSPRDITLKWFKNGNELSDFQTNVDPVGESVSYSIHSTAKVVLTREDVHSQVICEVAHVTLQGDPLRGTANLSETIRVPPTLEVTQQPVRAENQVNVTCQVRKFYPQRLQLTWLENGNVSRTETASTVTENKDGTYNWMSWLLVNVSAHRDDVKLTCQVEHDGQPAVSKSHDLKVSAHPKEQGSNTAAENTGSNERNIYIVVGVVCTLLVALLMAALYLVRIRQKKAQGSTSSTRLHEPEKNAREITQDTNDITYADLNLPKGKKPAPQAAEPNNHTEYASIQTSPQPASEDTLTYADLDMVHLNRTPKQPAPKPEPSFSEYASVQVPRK
T2 sequence (P78324 other isoform, or with tags, fused parts or gaps limits assumed): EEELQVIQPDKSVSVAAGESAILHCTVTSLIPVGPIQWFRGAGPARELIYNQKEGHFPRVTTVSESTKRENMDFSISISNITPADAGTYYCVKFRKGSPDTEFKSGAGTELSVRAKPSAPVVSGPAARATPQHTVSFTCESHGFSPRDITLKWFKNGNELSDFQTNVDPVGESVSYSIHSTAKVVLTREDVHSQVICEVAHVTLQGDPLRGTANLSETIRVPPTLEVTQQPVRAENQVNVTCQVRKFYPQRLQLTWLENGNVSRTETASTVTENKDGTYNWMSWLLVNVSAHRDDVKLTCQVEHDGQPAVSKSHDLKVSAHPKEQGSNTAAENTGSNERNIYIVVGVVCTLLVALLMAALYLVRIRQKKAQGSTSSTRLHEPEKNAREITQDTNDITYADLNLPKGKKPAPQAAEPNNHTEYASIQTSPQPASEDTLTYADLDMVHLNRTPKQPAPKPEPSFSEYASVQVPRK

IC50 (read off the curve), CD47-driven SHP-1 recruitment to SIRPαBIT [1]: ~0.2 µg/mL | EC50 [2]: 0.06 µg/mL | EC50 [3]: 0.09 µg/mL
B1: humanized anti-SIRPα antibody 6 (antibody, human IgG1, kappa, L234A L235A, V domains shown)
VH: RQLVESGGGLVQPGGSLRLSCTASGFSLSSHGISWVRQAPGKGLEYIGTIGTGVITYFASWAKGRFTGSKTSSTAYMELSSLRSEDTAVYFCARGSAWNDPFDPWGQGTLVTVSS
VL: DIVMTQSPSSLSASVGDRVTITCQASQSVYGNNDLAWYQQKPGQAPKLLIYLASTLATGVPSRFSGSGSGTDFTLTISSLQPEDFATYYCLGGGDDEADNTFGQGTKVEIKR
notes: human IgG1 LALA, kappa; also called mAb 6

EC50 [2]: 0.14 µg/mL | EC50 [3]: 0.07 µg/mL
B2: KWAR23-LALA (chimeric IgG1, LALA) (antibody)
heavy: not shown
light: QIVLTQSPAIMSASPGEKVTLTCSASSSVSSSYLYWYQQKPGSSPKLWIYSTSNLASGVPARFSGSGSGTSYSLTISSMEAEDAASYFCHQWSSYPRTFGAGTKLELKRTVAAPSVFIFPPSDEQLKSGTASVVCLLNNFYPREAKVQWKVDNALQSGNSQESVTEQDSKDSTYSLSSTLTLSKADYEKHKVYACEVTHQGLSSPVTKSFNRGEC
notes: chimeric human IgG1 LALA, kappa; also called KWAR23huIgG1LALA
